Laboratory results as given in patent publication US20150344570A1 (published 2015).
Changes are numbered by the printed parent chain. Numbers in names are those of the source.

T1: FcγRIIa H (human, UniProt P12318 34-217)
T1 construct: extracellular domain; also called FcgRIIa H; 2aH; not shown: His tag at the C terminus
T1 sequence (looked up): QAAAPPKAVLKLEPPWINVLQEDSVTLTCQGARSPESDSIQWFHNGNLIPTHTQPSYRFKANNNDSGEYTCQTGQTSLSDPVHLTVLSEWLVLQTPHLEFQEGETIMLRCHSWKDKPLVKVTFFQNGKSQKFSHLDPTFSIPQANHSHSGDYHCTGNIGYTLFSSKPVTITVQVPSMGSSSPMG

T2: FcγRIIb (human, UniProt P31994 43-217)
T2 construct: extracellular domain; also called FcgRIIb; 2b; not shown: His tag at the C terminus
T2 sequence (looked up): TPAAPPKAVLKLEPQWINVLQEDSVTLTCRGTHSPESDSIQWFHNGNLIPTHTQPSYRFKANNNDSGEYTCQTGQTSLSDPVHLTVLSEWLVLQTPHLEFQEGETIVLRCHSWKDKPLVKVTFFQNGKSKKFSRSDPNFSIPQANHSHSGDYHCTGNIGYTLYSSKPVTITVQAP

T3: FcγRIIa R (extracellular domain, His tag at the C terminus) (human, UniProt P12318 34-217)
T3 construct: extracellular domain; Soluble analyte in Biacore; also called FcgRIIa R type; 2aR
T3 sequence (looked up): T1 sequence (looked up) with H134R

B1: GpH7-A5/GpH7-B3 variant P329_03V/GpL16-k0 (antibody, human IgG1, kappa)
heavy 1: not shown
heavy 2: not shown
light: DIVMTQSPLSLPVTPGEPASISCQASESLVHSNRNTYLHWYLQKPGQSPQLLIYKVSNRFSGVPDRFSGSGSGTDFTLKISRVEAEDVGVYYCSQNTHVPPTFGQGTKVEIERTVAAPSVFIFPPSDEQLKSGTASVVCLLNNFYPREAKVQWKVDNALQSGNSQESVTEQDSKDSTYSLSSTLTLSKADYEKHKVYACEVTHQGLSSPVTKSFNRGEC
notes: He Ab: mutation in the GpH7-B3 H chain only
B2: GpH7-A5/GpH7-B3 variant P329_04F/GpL16-k0 (antibody, human IgG1, kappa)
heavy 1: not shown
heavy 2: not shown
light: B1 light
notes: as for B1
B3: GpH7-A5/GpH7-B3 variant P329_15Y/GpL16-k0 (antibody, human IgG1, kappa)
heavy 1: not shown
heavy 2: not shown
light: B1 light
notes: as for B1
B4: GpH7-A5/GpH7-B3 variant S324_01G/GpL16-k0 (antibody, human IgG1, kappa)
heavy 1: not shown
heavy 2: not shown
light: B1 light
notes: as for B1
B5: GpH7-A5/GpH7-B3 variant P329_06M/GpL16-k0 (antibody, human IgG1, kappa)
heavy 1: not shown
heavy 2: not shown
light: B1 light
notes: as for B1
B6: GpH7-A5/GpH7-B3 variant P329_18N/GpL16-k0 (antibody, human IgG1, kappa)
heavy 1: not shown
heavy 2: not shown
light: B1 light
notes: as for B1
B7: GpH7-A5/GpH7-B3 variant S324_10E/GpL16-k0 (antibody, human IgG1, kappa)
heavy 1: not shown
heavy 2: not shown
light: B1 light
notes: as for B1
B8: GpH7-A5/GpH7-B3 variant Y300_14T/GpL16-k0 (antibody, human IgG1, kappa)
heavy 1: not shown
heavy 2: not shown
light: B1 light
notes: as for B1
B9: GpH7-A5/GpH7-B3 variant S324_18N/GpL16-k0 (antibody, human IgG1, kappa)
heavy 1: not shown
heavy 2: not shown
light: B1 light
notes: as for B1
B10: GpH7-A5/GpH7-B3 variant Y300_12R/GpL16-k0 (antibody, human IgG1, kappa)
heavy 1: not shown
heavy 2: not shown
light: B1 light
notes: as for B1
B11: GpH7-A5/GpH7-B3 variant P329_13S/GpL16-k0 (antibody, human IgG1, kappa)
heavy 1: not shown
heavy 2: not shown
light: B1 light
notes: as for B1
B12: GpH7-A5/GpH7-B3 variant S324_02A/GpL16-k0 (antibody, human IgG1, kappa)
heavy 1: not shown
heavy 2: not shown
light: B1 light
notes: as for B1
B13: GpH7-A5/GpH7-B3 variant P329_19Q/GpL16-k0 (antibody, human IgG1, kappa)
heavy 1: not shown
heavy 2: not shown
light: B1 light
notes: as for B1
B14: GpH7-A5/GpH7-B3 variant Y300_13S/GpL16-k0 (antibody, human IgG1, kappa)
heavy 1: not shown
heavy 2: not shown
light: B1 light
notes: as for B1
B15: GpH7-A5/GpH7-B3 variant P329_16H/GpL16-k0 (antibody, human IgG1, kappa)
heavy 1: not shown
heavy 2: not shown
light: B1 light
notes: as for B1
B16: GpH7-A5/GpH7-B3 variant S324_09D/GpL16-k0 (antibody, human IgG1, kappa)
heavy 1: not shown
heavy 2: not shown
light: B1 light
notes: as for B1
B17: GpH7-A5/GpH7-B3 variant S324_11K/GpL16-k0 (antibody, human IgG1, kappa)
heavy 1: not shown
heavy 2: not shown
light: B1 light
notes: as for B1
B18: GpH7-A5/GpH7-B3 variant S324_16H/GpL16-k0 (antibody, human IgG1, kappa)
heavy 1: not shown
heavy 2: not shown
light: B1 light
notes: as for B1
B19: GpH7-A5/GpH7-B3 variant S324_12R/GpL16-k0 (antibody, human IgG1, kappa)
heavy 1: not shown
heavy 2: not shown
light: B1 light
notes: as for B1
B20: GpH7-A5/GpH7-B3 variant P329_08L/GpL16-k0 (antibody, human IgG1, kappa)
heavy 1: not shown
heavy 2: not shown
light: B1 light
notes: as for B1
B21: GpH7-A5/GpH7-B3 variant S324_19Q/GpL16-k0 (antibody, human IgG1, kappa)
heavy 1: not shown
heavy 2: not shown
light: B1 light
notes: as for B1
B22: GpH7-A5/GpH7-B3 variant P329_14T/GpL16-k0 (antibody, human IgG1, kappa)
heavy 1: not shown
heavy 2: not shown
light: B1 light
notes: as for B1
B23: GpH7-A5/GpH7-B3 variant P329_07I/GpL16-k0 (antibody, human IgG1, kappa)
heavy 1: not shown
heavy 2: not shown
light: B1 light
notes: as for B1
B24: GpH7-A5/GpH7-B3 variant P329_11K/GpL16-k0 (antibody, human IgG1, kappa)
heavy 1: not shown
heavy 2: not shown
light: B1 light
notes: He Ab: P329K (EU numbering) in the GpH7-B3 H chain only; also called GpH7-A5/GpH7-B13/GpL16-k0
B25: GpH7-A5/GpH7-B3 variant P329_12R/GpL16-k0 (antibody, human IgG1, kappa)
heavy 1: not shown
heavy 2: not shown
light: B1 light
notes: He Ab: P329R (EU numbering) in the GpH7-B3 H chain only; also called GpH7-A5/GpH7-B12/GpL16-k0
B26: GpH7-B3 variant T335_15Y/GpL16-k0 (antibody, human IgG1, kappa)
heavy: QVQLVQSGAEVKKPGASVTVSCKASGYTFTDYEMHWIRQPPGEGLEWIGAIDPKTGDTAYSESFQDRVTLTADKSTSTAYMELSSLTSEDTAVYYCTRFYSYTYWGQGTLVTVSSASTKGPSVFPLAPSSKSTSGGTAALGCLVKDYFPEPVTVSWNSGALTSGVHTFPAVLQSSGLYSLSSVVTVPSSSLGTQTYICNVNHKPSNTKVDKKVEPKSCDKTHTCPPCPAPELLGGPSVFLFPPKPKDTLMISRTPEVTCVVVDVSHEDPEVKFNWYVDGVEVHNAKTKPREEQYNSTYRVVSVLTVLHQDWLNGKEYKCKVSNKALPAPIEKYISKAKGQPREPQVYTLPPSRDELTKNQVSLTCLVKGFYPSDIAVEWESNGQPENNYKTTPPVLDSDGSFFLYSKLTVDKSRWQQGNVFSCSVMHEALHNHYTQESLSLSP
light: B1 light
notes: homodimerized; also called Ho Ab
B27: GpH7-B3 variant G236_10E/GpL16-k0 (antibody, human IgG1, kappa)
heavy: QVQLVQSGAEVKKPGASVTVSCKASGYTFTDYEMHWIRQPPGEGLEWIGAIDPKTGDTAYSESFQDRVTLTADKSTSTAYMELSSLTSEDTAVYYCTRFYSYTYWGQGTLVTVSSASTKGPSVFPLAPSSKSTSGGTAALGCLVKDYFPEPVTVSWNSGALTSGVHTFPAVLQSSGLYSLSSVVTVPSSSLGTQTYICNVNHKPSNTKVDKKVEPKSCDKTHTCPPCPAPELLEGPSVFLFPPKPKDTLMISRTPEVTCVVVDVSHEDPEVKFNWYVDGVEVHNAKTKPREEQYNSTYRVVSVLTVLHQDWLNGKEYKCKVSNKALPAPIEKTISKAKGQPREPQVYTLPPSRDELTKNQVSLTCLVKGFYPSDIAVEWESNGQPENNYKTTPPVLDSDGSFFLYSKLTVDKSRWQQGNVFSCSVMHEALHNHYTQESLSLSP
light: B1 light
notes: as for B26
B28: GpH7-B3 variant H268_10E/GpL16-k0 (antibody, human IgG1, kappa)
heavy: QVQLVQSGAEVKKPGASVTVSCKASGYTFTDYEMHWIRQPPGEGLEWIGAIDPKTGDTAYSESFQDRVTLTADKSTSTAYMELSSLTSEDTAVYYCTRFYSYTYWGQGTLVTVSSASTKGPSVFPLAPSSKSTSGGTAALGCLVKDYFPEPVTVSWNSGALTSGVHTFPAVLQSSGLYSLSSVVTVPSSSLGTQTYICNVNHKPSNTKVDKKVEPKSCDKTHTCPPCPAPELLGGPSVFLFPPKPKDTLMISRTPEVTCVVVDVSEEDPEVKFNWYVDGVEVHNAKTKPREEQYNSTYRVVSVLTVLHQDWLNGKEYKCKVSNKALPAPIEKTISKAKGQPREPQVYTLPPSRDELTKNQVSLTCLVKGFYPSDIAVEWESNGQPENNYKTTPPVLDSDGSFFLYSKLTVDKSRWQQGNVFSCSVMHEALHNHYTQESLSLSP
light: B1 light
notes: as for B26
B29: GpH7-B3 variant G236_09D/GpL16-k0 (antibody, human IgG1, kappa)
heavy: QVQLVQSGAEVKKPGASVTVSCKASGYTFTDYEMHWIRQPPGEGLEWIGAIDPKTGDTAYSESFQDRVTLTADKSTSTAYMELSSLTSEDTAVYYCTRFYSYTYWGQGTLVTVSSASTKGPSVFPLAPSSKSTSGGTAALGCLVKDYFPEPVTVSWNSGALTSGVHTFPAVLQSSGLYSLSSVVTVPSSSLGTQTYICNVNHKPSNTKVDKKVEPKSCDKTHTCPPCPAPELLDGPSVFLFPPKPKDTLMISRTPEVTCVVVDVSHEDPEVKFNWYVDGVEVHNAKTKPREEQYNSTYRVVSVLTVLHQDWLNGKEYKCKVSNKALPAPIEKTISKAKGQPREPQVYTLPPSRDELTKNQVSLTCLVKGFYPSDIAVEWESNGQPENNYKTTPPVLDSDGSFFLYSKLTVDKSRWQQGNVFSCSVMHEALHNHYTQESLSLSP
light: B1 light
notes: as for B26
B30: GpH7-B3 variant H268_09D/GpL16-k0 (antibody, human IgG1, kappa)
heavy: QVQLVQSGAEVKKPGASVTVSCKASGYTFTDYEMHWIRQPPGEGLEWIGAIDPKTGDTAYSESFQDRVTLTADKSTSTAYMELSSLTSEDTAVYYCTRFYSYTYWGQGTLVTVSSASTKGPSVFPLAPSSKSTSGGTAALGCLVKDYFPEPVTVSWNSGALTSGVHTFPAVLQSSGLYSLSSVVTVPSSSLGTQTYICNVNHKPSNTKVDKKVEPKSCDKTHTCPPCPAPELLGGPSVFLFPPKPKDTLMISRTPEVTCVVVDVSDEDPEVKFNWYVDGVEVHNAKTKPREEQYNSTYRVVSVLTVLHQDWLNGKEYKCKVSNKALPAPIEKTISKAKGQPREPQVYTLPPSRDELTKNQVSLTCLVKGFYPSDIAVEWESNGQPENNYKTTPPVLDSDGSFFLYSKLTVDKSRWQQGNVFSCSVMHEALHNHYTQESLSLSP
light: B1 light
notes: as for B26
B31: GpH7-B3 variant H268_13S/GpL16-k0 (antibody, human IgG1, kappa)
heavy: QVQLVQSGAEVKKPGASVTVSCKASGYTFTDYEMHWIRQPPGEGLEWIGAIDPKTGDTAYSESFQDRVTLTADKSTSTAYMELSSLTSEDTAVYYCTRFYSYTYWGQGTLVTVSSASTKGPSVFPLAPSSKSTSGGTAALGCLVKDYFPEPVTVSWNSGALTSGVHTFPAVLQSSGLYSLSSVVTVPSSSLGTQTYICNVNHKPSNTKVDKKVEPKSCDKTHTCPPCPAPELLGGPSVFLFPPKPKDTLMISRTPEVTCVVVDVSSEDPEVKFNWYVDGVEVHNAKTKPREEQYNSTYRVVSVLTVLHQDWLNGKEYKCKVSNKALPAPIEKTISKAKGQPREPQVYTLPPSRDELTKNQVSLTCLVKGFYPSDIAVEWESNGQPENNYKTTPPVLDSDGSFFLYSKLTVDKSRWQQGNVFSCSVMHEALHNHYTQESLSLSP
light: B1 light
notes: as for B26

These binders were tested against T1, FcγRIIa H (assay: SPR (Biacore), FcγR passed over captured antibody; binding amount as % of control GpH7-A5/GpH7-B3/GpL16-k0 (=100)).
Experimental: (§1) The heterodimerized antibodies He Abs in which one of the H chains was introduced with an alteration were assayed for their binding activities to each activating FcγR and inhibitory FcγR according to the method described in Example 4. […] The activating FcγRs in FIGS. 26, 27, 28, and 29 are FcγRIa, FcγRIIa (R), FcγRIIa (H), and FcγRIIIa, respectively.
(§2) Analysis of interaction between objective antibody and the FcγR was carried out using Biacore T100 (GE Healthcare). HBS-EP+ (GE Healthcare) was used as the running buffer, and the measurement temperature was set to 25° C. Chips produced by immobilizing the antigen peptide by the amine coupling method to a Series S Sencor Chip CM5 (GE Healthcare), or alternatively, chips produced by allowing preliminarily biotinylated antigen peptides to interact with and immobilize onto a Series S Sensor Chip SA (certified) (GE Healthcare) were used. Antibodies of interest were captured onto an antigen peptide-immobilized chip, and allowed to interact to each FcγR diluted with running buffer. To regenerate and repeatedly use the chip, the antibodies captured on the chip were washed off by reacting 10 mM glycine-HCl, pH 1.5.

| Binder | He/Con_2aH |
| --- | --- |
| B1 | 60.4 relative, control = 100 |
| B2 | 44.5 relative, control = 100 |
| B3 | 68.7 relative, control = 100 |
| B4 | 98.8 relative, control = 100 |
| B5 | 43.7 relative, control = 100 |
| B6 | 66.2 relative, control = 100 |
| B7 | 103 relative, control = 100 |
| B8 | 94.1 relative, control = 100 |
| B9 | 97.8 relative, control = 100 |
| B10 | 55.4 relative, control = 100 |
| B11 | 67.3 relative, control = 100 |
| B12 | 102 relative, control = 100 |
| B13 | 38.7 relative, control = 100 |
| B14 | 88.1 relative, control = 100 |
| B15 | 66.1 relative, control = 100 |
| B16 | 106 relative, control = 100 |
| B17 | 92.2 relative, control = 100 |
| B18 | 102 relative, control = 100 |
| B19 | 96.5 relative, control = 100 |
| B20 | 45.4 relative, control = 100 |
| B21 | 96 relative, control = 100 |
| B22 | 62.4 relative, control = 100 |
| B23 | 53.8 relative, control = 100 |
| B24 | 46.2 relative, control = 100 |
| B25 | 46.4 relative, control = 100 |

Each binder was assayed against T2, FcγRIIb in the same assay as above.
Experimental: as §1, §2

| Binder | He/Con_2b |
| --- | --- |
| B1 | 38.5 relative, control = 100 |
| B2 | 32.2 relative, control = 100 |
| B3 | 45.7 relative, control = 100 |
| B4 | 81.1 relative, control = 100 |
| B5 | 29.1 relative, control = 100 |
| B6 | 40.4 relative, control = 100 |
| B7 | 77.4 relative, control = 100 |
| B8 | 55.6 relative, control = 100 |
| B9 | 81.1 relative, control = 100 |
| B10 | 41.2 relative, control = 100 |
| B11 | 41 relative, control = 100 |
| B12 | 78.3 relative, control = 100 |
| B13 | 30.7 relative, control = 100 |
| B14 | 53.9 relative, control = 100 |
| B15 | 39.1 relative, control = 100 |
| B16 | 85.8 relative, control = 100 |
| B17 | 68.6 relative, control = 100 |
| B18 | 83.5 relative, control = 100 |
| B19 | 63.1 relative, control = 100 |
| B20 | 29.1 relative, control = 100 |
| B21 | 66.8 relative, control = 100 |
| B22 | 37.9 relative, control = 100 |
| B23 | 34.6 relative, control = 100 |
| B24 | 16.9 relative, control = 100 |
| B25 | 17.6 relative, control = 100 |

The binders below were run against T3, FcγRIIa R (extracellular domain, His …) (assay: SPR (Biacore), relative binding, control GpH7-B3/GpL16-k0 = 100).
Experimental: as §2

| Binder | Ho/Con_2aR |
| --- | --- |
| B26 | 107 % of control |
| B27 | 140 % of control |
| B28 | 154 % of control |
| B29 | 107 % of control |
| B30 | 157 % of control |
| B31 | 135 % of control |

These binders were tested against T1, FcγRIIa H (assay: SPR (Biacore); He/Con_2aH divided by He/Con_2b (FcγRIIa H versus FcγRIIb)).
Experimental: as §1, §2

| Binder | He_2aH/2b (IIaH/IIb) [ratio] |
| --- | --- |
| B1 | 1.57 |
| B2 | 1.38 |
| B3 | 1.5 |
| B4 | 1.22 |
| B5 | 1.5 |
| B6 | 1.64 |
| B7 | 1.33 |
| B8 | 1.69 |
| B9 | 1.21 |
| B10 | 1.34 |
| B11 | 1.64 |
| B12 | 1.31 |
| B13 | 1.26 |
| B14 | 1.64 |
| B15 | 1.69 |
| B16 | 1.23 |
| B17 | 1.34 |
| B18 | 1.22 |
| B19 | 1.53 |
| B20 | 1.56 |
| B21 | 1.44 |
| B22 | 1.65 |
| B23 | 1.56 |
| B24 | 2.74 |
| B25 | 2.63 |
